Here are results for 21 variants from the RNAGym collection of RNA variant scans (doi:10.7554/elife.90254).

Sequences and labels used below:
B1: OR4K15 (parent)
chain: GUUAACGGUCAUAGGCCAUGGAAACUAGGAGCACCAUUUCGCUGCCAGUGAAGAAAUGAACAAAGAAAAUCUGGGCCAGGCAGGCAUCAAAAGAAAUAGUCUUGCGCUCAACCAGAAAGUCUGUAAUCAUUUUAAGGGUA

The variants in the data set derive from B1. The data set can be described thus: self-cleavage, relative activity (ratio to wild type); higher = more cleavage; in vitro, sequencing; the parent is a self-cleaving ribozyme.
As to GUUAACGGUCAUAGGCCAUGGAGACUAGGUGCACCAUUUCGCUGCCAGUGAAGAAAUGAACAAAGAAAAUCUGGGCCAGGCAGGCAUCAAAAGAAAUAGUCUUGCGCUCAACCAGAAAGUCUGUAAUCAUUUUAAGGGUA [A23G A30U], the self-cleavage is 0.82.

Consider GUUAACGGUCAUAGGCCAUGGAGACUAGGGGCACCAUUUCGCUGCCAGUGAAGAAAUGAACAAAGAAAAUCUGGGCCAGGCAGGCAUCAAAAGAAAUAGUCUUGCGCUCAACCAGAAAGUCUGUAAUCAUUUUAAGGGUA [A23G A30G], for which the self-cleavage amounted to 1.1. As for GUUAACGGUCAUAGGCCAUGGACACUAGGAGCACCAUUUCGCUGCCAGUGAAGAAAUGAACGAAGAAAAUCUGGGCCAGGCAGGCAUCAAAAGAAAUAGUCUUGCGCUCAACCAGAAAGUCUGUAAUCAUUUUAAGGGUA [A23C A62G], the figure is 0.57. To GUUAACGGUCAUAGGCCAUGGACACUAGGGGCACCAUUUCGCUGCCAGUGAAGAAAUGAACAAAGAAAAUCUGGGCCAGGCAGGCAUCAAAAGAAAUAGUCUUGCGCUCAACCAGAAAGUCUGUAAUCAUUUUAAGGGUA [A23C A30G] belongs 0.62.

As for GUUAACGGUCAUAGGCCAUGGUAACUAGGAGCACCAUUUCGCUGCCAGUGAAGAAAUGAACAAAGAAAAUCUGGGCCAGGCAGGCAUCAAAAGAAAUAGUCUUGCGCUCAACCAGAAAGCCUGUAAUCAUUUUAAGGGUA [A22U U120C], the self-cleavage was determined as 0.48. To GUUAACGGUCAUAGGCCAUGGUAACUAGGAGCACCAUUUCGCUGCCAGUGAAGAAAUGAACAAAGAAAAUCUGGGCCAGGCAGGCAUCAAAAGAAAUAGUCUUGCGCUCAACCAGAAAGACUGUAAUCAUUUUAAGGGUA [A22U U120A] belongs 1.95. As for GUUAACGGUCAUAGGCCAUGGAGACUAGGAGCACCAUUUCGCUGCCAGUGAAGGAAUGAACAAAGAAAAUCUGGGCCAGGCAGGCAUCAAAAGAAAUAGUCUUGCGCUCAACCAGAAAGUCUGUAAUCAUUUUAAGGGUA [A23G A54G], the figure is 0.6; as for GUUAACGGUCAUAGGCCAUGGAGACUAGGAGCACCAUUUCGCUGCCAGUGAAGAGAUGAACAAAGAAAAUCUGGGCCAGGCAGGCAUCAAAAGAAAUAGUCUUGCGCUCAACCAGAAAGUCUGUAAUCAUUUUAAGGGUA [A23G A55G], 1.27.

Turning to GUUAACGGUCAUAGGCCAUGGAGACUAGGAGCACCCUUUCGCUGCCAGUGAAGAAAUGAACAAAGAAAAUCUGGGCCAGGCAGGCAUCAAAAGAAAUAGUCUUGCGCUCAACCAGAAAGUCUGUAAUCAUUUUAAGGGUA [A23G A36C], the self-cleavage worked out at 1.41.

Take GUUAACGGUCAUAGGCCAUGGAGACUAGGAGCACCGUUUCGCUGCCAGUGAAGAAAUGAACAAAGAAAAUCUGGGCCAGGCAGGCAUCAAAAGAAAUAGUCUUGCGCUCAACCAGAAAGUCUGUAAUCAUUUUAAGGGUA [A23G A36G]: the self-cleavage turned out to be 1.43. As for GUUAACGGUCAUAGGCCAUGGAGACUAGGAGCACCAUUUCGCUGCCAGUGUAGAAAUGAACAAAGAAAAUCUGGGCCAGGCAGGCAUCAAAAGAAAUAGUCUUGCGCUCAACCAGAAAGUCUGUAAUCAUUUUAAGGGUA [A23G A51U], the figure is 1.22. As for GUUAACGGUCAUAGGCCAUGGACACUAGGAGCACCAUUUCGCUGCCAGUGAAGAAAUGAACAAAGAAAAUCUGGGCCAGGCAAGCAUCAAAAGAAAUAGUCUUGCGCUCAACCAGAAAGUCUGUAAUCAUUUUAAGGGUA [A23C G83A], the figure is 2.28. On to GUUAACGGUCAUAGGCCAUGGAGACUAGGAGCACCAUUUCGCUGCCAGUGAAGAAAUGGACAAAGAAAAUCUGGGCCAGGCAGGCAUCAAAAGAAAUAGUCUUGCGCUCAACCAGAAAGUCUGUAAUCAUUUUAAGGGUA [A23G A59G], for which the self-cleavage is 1.11. For GUUAACGGUCAUAGGCCAUGGUAACUAGGAGCACCAUUUCGCUGCCAGUGAAGAAAUGAACAAAGAAAAUCUGGGCCAGGCAGGCAUCAAAAGAAAUAGUCUUGCGCUCAACCAGAAAGUCUGUAAUCAUUAUAAGGGUA [A22U U132A], the self-cleavage was 1.7.

Take GUUAACGGUCAUAGGCCAUGGACACUAGGAGCACCAUUUCGCUGCCAGUGAAGAAAUGAACAAAGAAAAUCUGGGCCAGGCAGGCAUCAAAAGAAAUAGUCUUGCGCUCAACCAGAAAGUCUGUAAUCACUUUAAGGGUA [A23C U130C]: the self-cleavage is 0.85. As for GUUAACGGUCAUAGGCCAUGGAGACUUGGAGCACCAUUUCGCUGCCAGUGAAGAAAUGAACAAAGAAAAUCUGGGCCAGGCAGGCAUCAAAAGAAAUAGUCUUGCGCUCAACCAGAAAGUCUGUAAUCAUUUUAAGGGUA [A23G A27U], the self-cleavage was determined as 1.29.

On to GUUAACGGUCAUAGGCCAUGGACACUAGGAGCACCAUUUCGCUGCCAGUGAAGAAAUGAACAAAGAAAAUCUGGGACAGGCAGGCAUCAAAAGAAAUAGUCUUGCGCUCAACCAGAAAGUCUGUAAUCAUUUUAAGGGUA [A23C C76A], for which the self-cleavage turned out to be 0.13. In the case of GUUAACGGUCAUAGGCCAUGGACACUAGGAGCACCAUUUCGCUGCCAGUGAAGAAAUGAACAAAGAAAAUCUGGGCCAGGCAGGCAUCAAAAGAAGUAGUCUUGCGCUCAACCAGAAAGUCUGUAAUCAUUUUAAGGGUA [A23C A96G], the self-cleavage was 1.33.

Regarding GUUAACGGUCAUAGGCCAUGGACACUGGGAGCACCAUUUCGCUGCCAGUGAAGAAAUGAACAAAGAAAAUCUGGGCCAGGCAGGCAUCAAAAGAAAUAGUCUUGCGCUCAACCAGAAAGUCUGUAAUCAUUUUAAGGGUA [A23C A27G], the self-cleavage came out at 0.28. To GUUAACGGUCAUAGGCCAUGGUAACUAGGAGCACCAUUUCGCUGCCAGUGAAGAAAUGAACAAAGAAAAUCUGGGCCAGGCAGGCAUCAAAAGAAAUAGUCUUGCGCCCAACCAGAAAGUCUGUAAUCAUUUUAAGGGUA [A22U U108C] belongs 0.03; to GUUAACGGUCAUAGGCCAUGGAGGCUAGGAGCACCAUUUCGCUGCCAGUGAAGAAAUGAACAAAGAAAAUCUGGGCCAGGCAGGCAUCAAAAGAAAUAGUCUUGCGCUCAACCAGAAAGUCUGUAAUCAUUUUAAGGGUA [A23G A24G], 1.03.
